Laboratory results taken from paper PMC11734622.

Biological target: HA-tagged human GABARAP [human]
Assay: co-immunoprecipitation (anti-HA IP), immunoblot quantification
Conditions: 2 h, RAW 264.7 LRRK2 KO cells, read off a plot

| response (DMSO, parent: 1) | response (DMXAA 100 µg/mL, parent: 3.5) | Substance |
| --- | --- | --- |
| 0.25 A.U. | 0.9 A.U. | Halo-tagged human LRRK2 (WT) mutant W109A; L112A [human] / HA-tagged human GABARAP [human] chain 1 W109A, chain 1 L112A |
| 0.4 A.U. | 0.85 A.U. | Halo-tagged human LRRK2 (WT) mutant W109A; L112A; W875A; I878A [human] / HA-tagged human GABARAP [human] chain 1 W109A, chain 1 L112A, chain 1 W875A, chain 1 I878A |
| 1.1 A.U. | 1.7 A.U. | Halo-tagged human LRRK2 (WT) mutant W875A; I878A [human] / HA-tagged human GABARAP [human] chain 1 W875A, chain 1 I878A |
